Assay [1] has as its target T1, human ASIC1 (human, UniProt P78348 1-528).
T1 construct: Ion channel subunit expressed on 3T3 (3T3/hASIC1) or HEK293 cells (HEK/hASIC1; HEK293 CL:1F10 transient); also called hASIC1; human ASIC1a
T1 sequence: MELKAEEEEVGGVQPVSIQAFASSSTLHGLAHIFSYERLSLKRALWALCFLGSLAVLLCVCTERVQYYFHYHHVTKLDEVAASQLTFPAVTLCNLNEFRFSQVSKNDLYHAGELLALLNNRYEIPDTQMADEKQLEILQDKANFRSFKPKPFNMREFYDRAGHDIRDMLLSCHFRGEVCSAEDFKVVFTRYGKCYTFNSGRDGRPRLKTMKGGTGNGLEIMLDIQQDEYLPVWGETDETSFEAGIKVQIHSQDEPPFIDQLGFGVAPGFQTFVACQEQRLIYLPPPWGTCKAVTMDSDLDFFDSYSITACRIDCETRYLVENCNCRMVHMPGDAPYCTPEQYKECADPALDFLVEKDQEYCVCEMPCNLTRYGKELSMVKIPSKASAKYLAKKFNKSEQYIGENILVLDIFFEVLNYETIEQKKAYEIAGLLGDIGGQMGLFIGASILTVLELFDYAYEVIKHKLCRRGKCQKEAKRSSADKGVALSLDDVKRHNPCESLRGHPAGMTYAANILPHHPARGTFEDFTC
Kind of assay: FACS, 3T3/hASIC1 cells. An excerpt: To further characterize anti-ASIC1 antibodies, their ability to bind either (a) a mouse fibroblast 3T3 cell line stably transfected to overexpress full length human ASIC1 (3T3/hASIC1; amino acids 1-528 of NCBI accession number NP_{—}001086.2 [SEQ ID NO:401]), (b) a 3T3 cell line stably transfected to over express full length mouse ASIC1a (3T3/mASIC1a; amino acids 1-526 of NCBI accession number NP_{—}033727), or (c) a ND7 cell line (ECACC, #92090903) that is a fusion cell line of mouse neuroblastoma and rat dorsal root ganglia that endogenously expresses rat ASIC1, was determined using flow cytometry (FACS). ND7 cells were differentiated by replacing the culture media with low-serum media (0.5% FBS) containing 1 mM dibutyryl-cAMP (Cat. No. sc-201567A, Santa Cruz Biotechnology, Inc., Santa Cruz, Calif.). […]
(§1) To perform the FACS binding experiments, adherent cells were collected using 1 mM EDTA in PBS, then washed, and re-suspended in cold PBS containing 5% FBS. […] After incubating for 20 minutes on ice, the cells were washed and resuspended in PBS containing 5% FBS, then sorted and analyzed on a flow cytometer (FACSCalibur, BD Biosciences, San Jose, Calif.) to determine relative binding by the candidate antibodies to the tested cell lines. […] Percentage of ASIC1 signal over secondary antibody alone was calculated using FlowJo software (Tree Star, Ashland, Oreg.).

For assay [2], the target named is T1, human ASIC1. Kind of assay: cell-based or functional assay.
Assay [3] concerns the target T1, human ASIC1. Description: cell-based or functional assay. This is another data set of the same source.
Assay [4] deals with T2, mouse ASIC1a (mouse, UniProt Q6NXK8 1-526).
T2 sequence (looked up): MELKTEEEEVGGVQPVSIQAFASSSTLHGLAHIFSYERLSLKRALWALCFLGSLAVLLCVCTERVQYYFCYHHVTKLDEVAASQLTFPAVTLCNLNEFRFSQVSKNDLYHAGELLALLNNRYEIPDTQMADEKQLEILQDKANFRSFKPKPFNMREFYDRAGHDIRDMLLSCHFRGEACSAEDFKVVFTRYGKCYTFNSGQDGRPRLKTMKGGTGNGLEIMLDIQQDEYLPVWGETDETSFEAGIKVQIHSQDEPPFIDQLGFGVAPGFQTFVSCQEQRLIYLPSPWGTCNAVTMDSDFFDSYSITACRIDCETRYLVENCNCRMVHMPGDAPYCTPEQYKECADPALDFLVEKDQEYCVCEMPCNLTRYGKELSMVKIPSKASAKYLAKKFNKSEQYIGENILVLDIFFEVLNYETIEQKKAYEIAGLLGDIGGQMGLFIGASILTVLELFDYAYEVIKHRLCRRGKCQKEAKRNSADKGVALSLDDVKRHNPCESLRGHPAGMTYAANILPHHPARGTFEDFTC
Description: cell-based or functional assay.

For assay [5], the target named is T1, human ASIC1. Description: cell-based or functional assay. This is another data set of the same source.
The target in another assay is T3, rat ASIC1 (rat, UniProt P55926 1-526).
T3 construct: whole, on cells; ND7 is a fusion line of mouse neuroblastoma and rat dorsal root ganglia; also called rat ASIC1a
T3 sequence (looked up): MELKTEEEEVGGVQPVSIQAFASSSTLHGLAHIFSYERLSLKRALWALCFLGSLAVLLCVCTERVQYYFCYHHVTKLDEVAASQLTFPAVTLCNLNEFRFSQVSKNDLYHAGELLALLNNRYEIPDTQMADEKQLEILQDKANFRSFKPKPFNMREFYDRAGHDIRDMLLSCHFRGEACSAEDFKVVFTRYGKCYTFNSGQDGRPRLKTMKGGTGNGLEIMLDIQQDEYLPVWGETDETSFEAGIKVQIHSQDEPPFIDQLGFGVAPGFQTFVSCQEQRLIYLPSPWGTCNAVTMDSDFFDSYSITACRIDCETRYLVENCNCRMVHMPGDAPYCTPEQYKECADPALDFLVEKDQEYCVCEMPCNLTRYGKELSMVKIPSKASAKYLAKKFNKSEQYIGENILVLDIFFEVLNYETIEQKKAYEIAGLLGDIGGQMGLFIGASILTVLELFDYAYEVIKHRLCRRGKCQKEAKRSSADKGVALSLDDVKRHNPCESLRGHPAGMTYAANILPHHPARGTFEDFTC
Kind of assay: FACS, undifferentiated ND7 cells.
Source text: (§2) To further characterize anti-ASIC1 antibodies, their ability to bind either (a) a mouse fibroblast 3T3 cell line stably transfected to overexpress full length human ASIC1 (3T3/hASIC1; amino acids 1-528 of NCBI accession number NP_{—}001086.2 [SEQ ID NO:401]), (b) a 3T3 cell line stably transfected to over express full length mouse ASIC1a (3T3/mASIC1a; amino acids 1-526 of NCBI accession number NP_{—}033727), or (c) a ND7 cell line (ECACC, #92090903) that is a fusion cell line of mouse neuroblastoma and rat dorsal root ganglia that endogenously expresses rat ASIC1, was determined using flow cytometry (FACS). ND7 cells were differentiated by replacing the culture media with low-serum media (0.5% FBS) containing 1 mM dibutyryl-cAMP (Cat. No. sc-201567A, Santa Cruz Biotechnology, Inc., Santa Cruz, Calif.). FACS binding was tested for some antibodies on both undifferentiated ND7 cells and differentiated ND7 cells.
as §1, with “PBS containing 5% FBS. For each binding experiment, each anti-ASIC1 antibody (at final concentrations of 10 nM of purified antibodies or 3.3 nM for antibody supernatants for binding to 3T3/hASIC1 cells and 5 nM for binding to 3T3/mASIC1a or ND7 cells) was added to 250,000 cells in 500 μL of PBS with 5% FBS.” for “PBS containing 5% FBS.”
A general note: A flow cytometer gives signals particle by particle.

The target in assay [6] is T1, human ASIC1. Kind of assay: FACS titration, 3T3/hASIC1 cells.
Assay [7] addresses T2, mouse ASIC1a. Description: FACS, 3T3/mASIC1a cells.
Source text: as §2
To perform the FACS binding experiments, adherent cells were collected using 1 mM EDTA in PBS, then washed, and re-suspended in cold PBS containing 5% FBS. For each binding experiment, each anti-ASIC1 antibody (at final concentrations of 10 nM of purified antibodies or 3.3 nM for antibody supernatants for binding to 3T3/hASIC1 cells and 5 nM for binding to 3T3/mASIC1a or ND7 cells) was added to 250,000 cells in 500 μL of PBS with 5% FBS. After incubation for 20 minutes at room temperature, a secondary antibody which recognizes human Fc (Cat. No. 109-136-098, Jackson ImmunoResearch Laboratories, Inc., West Grove, Pa.) or mouse Fc (Cat. No. 550826, BD Biosciences, San Jose, Calif.) and is conjugated to allophycocyanin, was then added to the cell mixture at a final concentration of 13.3 nM. After incubating for 20 minutes on ice, the cells were washed and resuspended in PBS containing 5% FBS, then sorted and analyzed on a flow cytometer (FACSCalibur, BD Biosciences, San Jose, Calif.) to determine relative binding by the candidate antibodies to the tested cell lines. Histograms of cells stained with anti-ASIC1 antibodies were compared with those of cells stained with secondary antibody alone. Percentage of ASIC1 signal over secondary antibody alone was calculated using FlowJo software (Tree Star, Ashland, Oreg.).

One may read the EC50 as the midpoint of the concentration-response curve. Higher therefore signals a need for much substance.

B1: H4H6381P (antibody, human IgG4, V domains shown)
VH: QVQLVQSGAEVKKPGASVKVSCKASGYTFTSYGISWVRQAPGQGLEWMGWISAYNGNTNYAQKLQGRVTMTTDTSTSTAYMELRSLRSDDTAVYYCARDGSYSWFDPWGQGTLVTVSS
VL: not shown
For B1, in the assay with human ASIC1 [1], the binding result is recorded as “no binding”. Besides, in the assay with human ASIC1 [2], the “Current inhibition (%) at 100 nM antibody, Q-Patch, pH 6.0” value (“Current inhibition (%)” below) was 25%.

B2: H3M6721N (antibody, V domains shown)
VH: EVQLLASGGGLVQPGGSLRLSCAASGFTFSSFAMSWVRQAPGKGLEWVSGISGSGVSTYYADSVKGRFTISRDNSKNTLYLQMNSLRAEDTAAYYCAKEAYKWQPWGQGIRVTVSS
VL: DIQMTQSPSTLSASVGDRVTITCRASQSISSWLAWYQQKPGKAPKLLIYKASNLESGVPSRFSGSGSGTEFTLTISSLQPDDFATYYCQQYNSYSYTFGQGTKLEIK
notes: Chimeric: human variable, mouse constant domains; H3M prefix marks the Fc, isotype not spelled out
For B2, the “apparent IC50, human ASIC1 current, Q-Patch” value with human ASIC1 [3] is at most 10 nM. Further, in the assay with mouse ASIC1a [4], the “apparent IC50, mouse ASIC1 current, Q-Patch” value was below 25 nM. Moreover, in the assay with human ASIC1 [5], the “FLIPR Dose Curve, pH 5.0 % Block” value was 25%; the “FLIPR Dose Curve, pH 5.5 % Block” value came out at 44%; the “FLIPR Dose Curve, pH 5.5 IC50” value was 0.3 nM. In the assay with human ASIC1 [2], the “Current inhibition (%)” value was determined as 100%. Also, in the assay with rat ASIC1, the binding result is on record as “no binding (tested: 5 nM; gated lower than 1%)”. The molecule further returned an EC50 with human ASIC1 [6] of 0.085 nM.

B3: H3M6720N (antibody, V domains shown)
VH: EVQLVESGGGLVQPGGSLKLSCAASGFTFSSFWMSWVRQAPGKGLEWVANIKQNGSETYYVDSVKGRFTISRDNTKNSLYLQMNSLRAEDTAIYYCARGGRIQLWSSWFDPWGQGTLVTVSS
VL: AIQMTQSPSSLSASVGDRVTITCRASQGISNDLGWYQQKPGKAPKLLIYGASSLQTGVPSRFSGSGSGTDFTLTISSLQPEDFATYYCLQDFNYPYTFGQGTKLEIK
notes: as for B2
B3: in the assay with human ASIC1 [3], the “apparent IC50, human ASIC1 current, Q-Patch” value is at most 10 nM. The “apparent IC50, mouse ASIC1 current, Q-Patch” value with mouse ASIC1a [4] is below 25 nM. Further, in the assay with human ASIC1 [2], the “Current inhibition (%)” value was 82%. The binding result in the assay with mouse ASIC1a [7] and in the assay with rat ASIC1 was “no binding (tested: 5 nM; gated lower than 1%)” in each case. The same molecule had an EC50 in the assay with human ASIC1 [6] of 1.1 nM.

B4: H4H6362P (antibody, V domains shown)
VH: QVQLVESGGGVVQPGRSLRLSCEASGFTFGSYGMHWVRQAPGKGLEWMAVISYDGNSRYSADSVKGRFTISRDNSKNTLYLQMNSLRAEDTALYYCAKENHIAARRPGGLDVWGQGTTVTVSS
VL: DIQMTQSPSSLSASVGDRVTITCRASQGISIYLAWYQQKPGKVPKLLIYAASSLQSGVPSRFSGSGSGTDFTLTISSLQPEDVATYFCQNYNIAPWTLGQGTKVEIK
On to B4, for which the binding result with human ASIC1 [1] was “no binding”. In the assay with human ASIC1 [2], the “Current inhibition (%)” value is 29%.

These data come from patent publication US20140056907A1 (Regeneron, published 2014).
